# Data from the nanobody polyreactivity screen of Harvey et al. (2022).
# Experiment: yeast display, Sf9 membrane polyspecificity reagent, FACS + sequencing; frameworks hold sequencing errors
# Summary of the method: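 A synthetic nanobody library was expressed on Saccharomyces cerevisiae BJ5465 by galactose induction for 36–48 hours. The library was stained for 1 hour at 4 °C with 10% biotinylated, detergent-solubilized Sf9 membrane reagent and enriched with streptavidin microbeads before FACS. Low and high (top ~1%) gates were set on anti-HA fluorescence for expression and streptavidin fluorescence for reagent binding, and each polyreactivity label reflects the gate of origin.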
row,Sequence,polyreactivity (PSR sort gate)
1,QVQLVESGGGLVQAGGRLRLSCAASGRIFGRYAMGWYRQAPGKERELVAAITWTGGTTYYADSVKGRFTISRDNAKNTVYLQMNSLKPEDTAVYYCAARQGYGIYGDYYYWGQGTQVTVSS,high polyreactivity
2,QVQLVESGGGLVQAGGRLRLSCAASGRIFTPNPMGWYRQAPGKERELVAAITTSAGRTYYADSVKGRFSISRDNAKNTVYLQMNSLKPEDTAVYYCAARYFPIRGYSWGQGSQVTVSS,high polyreactivity
3,QVQLVESGGGLVQAGGRLRLSCAASGRIFYTNYMGWYRHAPGKERELVAAIRSVSTYYADSVKGRFTISRDNAKNTVYLHMNSLNPEDTAVYYCNALRTNRYDYWGQGTQVTVSS,high polyreactivity
4,QVQLVESGGGLVQAGGRLRLSCAASGRIFYTYTMGWYRQAPGKERELVATITDGTRTNYADSVKVRFTISRDNAKITVYLQMNSLKHEDTAVYYCNAAGRWHDLYRINYDYWGQGTQVTVSS,low polyreactivity
5,QVQLVESGGGLVQAGGRLRLSCAASGRIISHYAMGWYRQAPGKEWELVAAISRSGGSTYYADSVKGRFTLSRDNAKNTVYLQMNSLKPEDTAVYYCAARSWPNIRCHDYWGQGTQVTVSS,high polyreactivity
6,QVQLVESGGGLVQAGGRLRLSCAASGRIYGLYAMGWYRQAPGKERELVAAITLSGDGTDYADSVKGRFTISRDNAKNTVYLQMTSLKPDDTAVYYCAKVGQYWWNMDYWGQGTQVTVSS,low polyreactivity
7,QVQLVESGGGLVQAGGRLRLSCAASGRTFIANVMGWYIQAPGKERELVAAITSGGGTSYADSVKGRFTISRDNAKNTVYLQMNSLKPEDTAVYYCNADGYLAERFVIRLDEYRDYDYWGQGTQVTVSS,low polyreactivity
8,QVQLVESGGGLVQAGGRLRLSCAASGRTFIGYAMGWSRQAPGKERELVAAISSTGGSTYYADSVKGRFTISRDNAKNTVYLQMNSLKPEDTAVYYCATDADRPPRTPDISYVSNFDYWGQGTQVTVSS,low polyreactivity
9,QVQLVESGGGLVQAGGRLRLSCAASGRTFRKYTMGWYRQAPGKEREFDAAITYSGGSTYYADSVKGRFTISRDNAKNTVYLQMNSLKPEDTAVYYCVTRGGYYLYYSYYYWGQGTQVTVSS,high polyreactivity
10,QVQLVESGGGLVQAGGRLRLSCAASGRTFRLYAMGWYRQAPGKERELVAAINYSDGSTYYADSVKGRFTISRDIAKNTVYLQMNSLKPEDSAVSYCAADLQSGYTIPTSIVEYHPFDYWGQGTQVTVSS,low polyreactivity
11,QVQLVESGGGLVQAGGRLRLSCAASGRTFTPYTMGWYIKAPGKEREFVAAIRTGGNTYYADSVKGRFTISRDNAKNTVYLQMNSLKPEDTAVFYCAARDRIGYRLYYWGQGTQVTVSS,high polyreactivity
12,QVQLVESGGGLVQAGGRLRLSCAASGRTFYKNARGWYREAPGKERELVAAITNRGGSTYYADSVKGRFTISRDNAKNTVYLQMNSLKPEDTAVYYCNARRGSTGNVARWHYDYWGQGTQVTVSS,low polyreactivity
13,QVQLVESGGGLVQAGGRLRLSCAASGRTFYTNTMGWYRQAPGKERELVAAISYSGSSTYYADSVKGRFTISRDNAKNTGYLQINSLKPEDTAVYYCNAVRYYRYYYWGQGTQVTVSS,low polyreactivity
14,QVQLVESGGGLVQAGGRLRLSCAASGRTFYYNAMGWYREAPGKERELVATIGGSTYYADSVKGRFTISRDNAKNTVYLQMNSLIPEDTAVYYCAASRYSHYPRYRLTCFYYWGQGTQVTVSS,high polyreactivity
15,QVQLVESGGGLVQAGGRLRLSCAASGRTFYYYPMGWYRQAPGKERELVAAISWSGGSTYYADSVKGRCTISRDNAKNTVYLQLNSLKPDDTAVNYCNAVGSKGYRMDYWGQGTQVTVSA,high polyreactivity
16,QVQLVESGGGLVQAGGRLRLSCAASGRTIVRYVIGWYRQAPGKERELVARISFSSGSTYYADSVKGRFTISRDNAKNTVYVQMNSLIPEDTAVYYCAASPDVSFRRFSRVVSGDYWGQGTKVTVSS,high polyreactivity
17,QVQLVESGGGLVQAGGRLRLSCAASGRTLFYYARGWYRQEPGKEREFVPAITWSGVSTSYADSVKGRFTISRDNAKNTVYLQLNSLKPEDTAVYYCAARGYRPRLGKWLDYNYWGQGTQVTVSS,high polyreactivity
18,QVQLVESGGGLVQAGGRLRLSCAASGRTLYRYAMGWYRQAPGKERELVATIRRSGGSTNYADSVKGRFTISRDNAKNTVYLQMNSLKPEDTAVYYCAAVSFKPEYYYWGQGTQVTVSS,high polyreactivity
19,QVQLVESGGGLVQAGGRLRLSCAASGRTVNQYAMGWYRQAPGKERELVAAISWSGGRTYYADSVKGRFTISRDNDKNTDYLQMNSLKPEDTAVYYCNKLTRDGRKEDYWGQGTQVTVSS,high polyreactivity
20,QVQLVESGGGLVQAGGRLRLSCAASGSIFFYYAMGWYRQAPGKERELVADITSGGTTYYADSVKGRFTISRDNAKNTVSLQMNSLIPEDTAVYYCNAGLYPGQRPDYTNYSSDYWGQGTQVTVSS,low polyreactivity

row,Sequence,polyreactivity (PSR sort gate)
1,QVQLVESGGGLVQAGGRLRLSCAASGSIFIYNAMGWYRQAPGKERELVATSSSGTRTYYADSVKGRFTISRDNAQNTVYFQMNSLKPEDTAVYNCAADGPFRRTYGDWGQGPQVTVSS,low polyreactivity
2,QVQLVESGGGLVQAGGRLRLSCAASGSIFNANAMGWYRHAPGKEREMVAGIRSGSSTNYADSVKGRFTISRDNAKNTVYLQMNSLKPEDTAVYYCATEGYWVYGFDDEYWGQGTQVTVSS,low polyreactivity
3,QVQLVESGGGLVQAGGRLRLSCAASGSIFQPYAMGWSRQAPGKERELVAAINGRGGSTHYADSVKGRFTISRDNAKNTVYLQMNSLKPEDTAVYYWNRPKWYDGDYWGQGTQVTVSS,high polyreactivity
4,QVQLVESGGGLVQAGGRLRLSCAASGSIFRPNPMGLYRQAPGKDRELVAAITWSGDSTYYADSVKGRFTISRDNAKNTVYLQMNSLKPEDTAVYYCAADFTYQGYSANDYWGQGTQVTVSS,low polyreactivity
5,QVQLVESGGGLVQAGGRLRLSCAASGSIFVGNTMGWYRQAPGKERELVAAISRTARTYYADSVKGRFTISRDNAKNTVYLQMNSLKPEDTAVYYCARASTQVKYGYEYWGQGTQVTVSS,high polyreactivity
6,QVQLVESGGGLVQAGGRLRLSCAASGSIFVKYAMGCYRHAPGKERELVATIRRSGTSTYYADSVKGRFTISRDNAMNTVYLQMNSLKPEDPAVYYCAALRSLLYRTYGYWGQGTQVTVSS,low polyreactivity
7,QVQLVESGGGLVQAGGRLRLSCAASGSIFYYNAMGWYRQAPGKERELVAAISRGGRTYYADSVKGRFTISRDNEKNTVYLQMNSLKPEDTAVYYCSARWSGKSINTISFDYWGQGTQVTVSS,high polyreactivity
8,QVQLVESGGGLVQAGGRLRLSCAASGSILGDNAMGWYRQAPGKERELVAAISYRGGSTYADSVKGRFTISRDNATNTVYLQKNSLKPDDTAVYYCNKTDIDDSQYREYEYWGQGTQVTVSS,low polyreactivity
9,QVQLVESGGGLVQAGGRLRLSCAASGSIYPDKAMGWYRQAPGKERELVAAIDKGTGSTNYADSVKGRFTISRDNAKITVNLQLNSLKPEDTAVYYCAKGWLTPRGGAWYDDYWGQGTQVTVSS,low polyreactivity
10,QVQLVESGGGLVQAGGRLRLSCAASGSTFARNAMGWYRQAPGKERELVPAISRGGSTYYADSVKGRFTISRDNAKNTVYLEMNSLKPEDTAVYYCAVYNFHYGYVWYPYDYWGQGTEVTVSS,high polyreactivity
11,QVQLVESGGGLVQAGGRLRLSCAASGSTFATYTMGWYRQPPGKERELVAAISVSGSRTYYADSVKGRFSISRDNAKNTVYLQMNSLKPEDTAVYYCAAANHKGSRMDYWGPGTQVTVSS,high polyreactivity
12,QVQLVESGGGLVQAGGRLRLSCAASGSTFGSNVMGWYRQAPGKERELVASISSGGRTKYADSVKGRFTISRDNAKNTVYLQMNSLKPEDTAVYYCNTRLRKKNSRDYDYWGQGTQVTVSS,low polyreactivity
13,QVQLVESGGGLVQAGGRLRLSCAASGSTFGWYARGWYRQAPGKERELVATISSGGSTYYADSVKGRFTISRDNAKNTVSLQMNSLKPEDTAVYYCAARIGTGVLPGRGANSHMDFWGHGTQVTVSS,low polyreactivity
14,QVQLVESGGGLVQAGGRLRLSCAASGSTFHHNVMGWYRQAPGKEWELVAAITSSGGSTYYADSVKGRFTISRDNAKNTVYLQMNSLKPEDTAVYYCAKDKLIFYRVGSDYWGQGTQVNVSS,low polyreactivity
15,QVQLVESGGGLVQAGGRLRLSCAASGSTFRGYAMGWYRQAPGKEREFVAAITYTGSSTTYADSVIGRFTISRDNAKTTVYLQMNSLKPEYTADFYCAARYVASRIYKRYYWGQGTQVTVSS,high polyreactivity
16,QVQLVESGGGLVQAGGRLRLSCAASGSTFRVYAMGWYRQAPGKERELFAAIRSGGGTNYADSVKGRFTISRDNAKNTVYLQMNSLKPEDTAVYYCAREAATDISPGYDYWGQGTQVTVSS,low polyreactivity
17,QVQLVESGGGLVQAGGRLRLSCAASGSTFSLNTMGWYRQAPGKERELFAAIRWRSGSTYYADSVKGRFTISRDNAKNTVYLHKNRLKPEDNAVYYCAVTARVTFLLRDGGRAEFDYWGQGTQVTVSS,low polyreactivity
18,QVQLVESGGGLVQAGGRLRLSCAASGSTFSRNTMGWYRQAPGKESELVAAISKSGGRTYYADSVKGRFTISRDNAKNTVYLQMNSLKPEDTAVYYCNGVKLLGTRGYGYLGQGTQVTVSS,high polyreactivity
19,QVQLVESGGGLVQAGGRLRLSCAASGSTFSYYAMGWYRHAPGKERELVAAITSSGSRTYYADSVKGRFTISRDKAKNTVYLQMNSLKPEDTAVYYCAAVYVYRTSYLISLYDYGYWGQGTQVTVSS,high polyreactivity
20,QVQLVESGGGLVQAGGRLRLSCAASGSTFWSKVMGWYRQAPGKERELVSAISYGGVTTSYADSVKGRFTISRDNAKNTVYLQMTSLKPEDTAVYYCATDYVGYYFYESDYWGQGTQVTVSS,low polyreactivity
